Source: the supplement of paper PMC10567573

B1: VDR (parent)
chain: LIKFQVGLKKLNLHEEEHVLLMAI
B2: C9orf9 (parent)
chain: LTKASLKPRGCSKPPWRPPGGKL

Variants of: B1
Experiment: protein stability index of a GFP-peptide fusion (GPS, HEK-293T) (PSI 1-6); higher = more stable
Details: c terminus: a fixed tail appended
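Note: lentivirally expressed fusions sorted by FACS into six bins by GFP to DsRed ratio, PSI derived from sequencing read proportions per bin multiplied by bin number.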

Protein stability index, by site and new letter:
V6: G 2.2; L 2.91; W 1.54; D 1.47; F 3.19; C 3.2; H 4.18; Q 1.74; T 2.73; K 2.01; S 2.98; N 2.61; M 3.76; A 2.24; P 2.85
L8: N 2.82; P 2.31; S 3.06; D 3.48; W 1.89; F 3.06; M 3.04; I 3.67; T 2.62; Q 1.56; H 2.3; K 2.85
M22: N 2.99; S 1.68; G 2.01; P 2.09; T 1.84; C 2.61; H 2.06; I 2.91; W 2.81; Y 2.25; K 1.7; A 3.3; L 2.66; Q 2.36; D 1.17; R 1.33; F 2.88; E 1.15
A23: V 1.85; D 3.29; E 2.23; R 2.37; H 2.49; Y 3.16; L 3.49
L21: P 1.69; K 3.43; M 2.45; C 3.18; D 1.85; S 2.08; G 2.76; N 1.68; V 4.64; Q 2.02; Y 2.92
F4: W 1.5; R 2.72; N 4.44; P 1.31; T 1.48; Y 2.64; S 3.39; Q 2.09; L 4.2; M 1.75
Q5: L 3.08; F 2.56; D 4.34; V 2.77; W 3.59; P 2.97; H 2.65; K 2.89; N 1.79
I24: E 2.55; A 2.8; D 1.87; C 3.08; N 2.74; Y 3.26; W 2.33; K 2.69; P 1.21; S 1.97; T 1.85; F 3.74; R 2.35; Q 2.48
G7: L 2.4; F 1.75; K 2.84; P 1.3; C 1.72; A 2.15; Q 3.23; Y 2.11; W 3.47; S 2.46; M 3.9; H 3.58; D 2.61; T 2.82
E17: N 2.3; R 3.74; H 2.34; P 2.91; F 1.95; D 2.28; Q 2.7; Y 3.14; L 1.8; M 2.37
L13: E 1.4; G 1.88; K 3.2; D 1.74; M 3.14; F 1.7; I 2.39; W 2.81; Q 3.27; R 3.69; H 2.3; N 3.72; V 3.02; P 2.73; S 3.54; T 3.36
V19: T 2.52; A 1.58; I 1.93; G 1.4; D 3.54; N 1.59; R 2.89; H 3.1; F 2.52; W 1.04; C 1.63; Q 3.04; K 1.99
N12: S 2.5; T 2.92; I 2.19; E 3.9; G 2.62; F 2.51
K10: D 3.4; C 4.27; F 3.36; V 1.83; E 2.11; H 1.38; M 2.47; P 3.19; T 2.23; A 3.24; N 1.9; L 4.27
L20: H 1.86; T 2.4; F 2.29; G 4.03; M 2.15; E 2.24; D 1.19; P 2.31; C 3.71; A 2.05; Y 2.9; K 1.91; V 1.01; Q 1.81; I 2.83
H14: K 2.66; C 2.28; Q 2.43; G 4.41; P 2.53; I 2.28; N 3.26; D 2.21; E 4.65; Y 2.93
L11: E 3.86; D 2.78; Y 2.28; A 2.56; S 2.29; R 1.3; T 2.03; W 2.1; F 2.14; K 2.98; I 3.2; P 2.34; M 2.93; Q 2; C 3.35
E15: F 2.77; C 1.99; P 2.38; T 3.96; Y 1.94; W 3.87; Q 2.77; K 2.5; S 2.96; L 3.71; A 2.52; G 2.92; V 2.61
E16: C 3.87; K 1.77; T 2.81; Q 1.57; I 1.97; P 3.81; Y 1.43; R 2.24; L 3.15; N 2.09
H18: N 3.21; K 3.13; A 4.04; E 2.33; I 2.93; T 1.12; M 3.56
K9: F 3.38; N 1.61; R 2.63; Y 4.29; V 3.6; H 1.59; T 3.39; M 3.2; S 3.17; Q 3.62; C 5.08; D 2.79; L 2.97; P 3.16; A 2.27; G 3.2; I 1.03

Variants of: B2
Experiment: as above
Details: c terminus: native

Protein stability index of substitutions, site by site:
K3: G 1.74; Y 2.73; Q 2.6; D 2.39; L 2.36; E 1.97; S 1.91; P 2.66; F 1.51; N 2.08; V 2.86; T 2.19; A 1.38; H 2.28
L1: F 2.29; I 1.71; Q 3.17; M 1.86; Y 2.31; S 2.78; T 1.85; V 1.8; N 3.8; E 2.09; D 1.76; G 2.5; R 2.13; H 1.82; W 1.89; K 1.85; P 2.06
A4: W 2.44; S 2.02; Q 1.65; C 1.63; N 2; F 1.75; D 1.25; M 1.69; H 1.96; G 1.36; P 3.55; V 1.58; I 1.61; L 1.08; T 1.78; K 1.8
T2: K 2.28; I 1.86; G 1.36; Q 1.32; A 1.67; F 1.95; R 1.85; V 1.58; P 2.72; H 2.12; C 1.96; D 1.78; N 2.21; L 2.26; S 2.59
L6: D 1.5
S5: N 1.99; T 2.08; I 2.9; E 1.81; F 2.03; Q 3.27; H 1.55; M 1.83; L 2.21; A 2.57; D 1.19; P 2.21; K 2.43; V 2.5; W 3.95; C 1.86; G 1.24
